Patent publication US20150344570A1 (published 2015)
Substitutions are numbered along the chain they refer to. Names and notes keep the numbering of the source. Like-named read-outs stand apart in the source and are kept apart here.

T1: FcgRIIa R (FcγRIIa type R) extracellular domain with C-terminal His tag (human, UniProt P12318 34-217)
T1 construct: extracellular domain; also called FcγRIIa R; not shown: His tag attached to the C terminus
T1 sequence (looked up): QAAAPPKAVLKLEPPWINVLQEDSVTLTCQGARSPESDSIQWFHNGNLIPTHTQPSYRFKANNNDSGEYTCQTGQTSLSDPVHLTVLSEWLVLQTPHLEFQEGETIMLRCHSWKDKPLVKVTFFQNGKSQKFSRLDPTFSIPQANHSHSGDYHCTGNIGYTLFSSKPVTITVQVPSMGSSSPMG

T2: FcgRIIa H (FcγRIIa type H) extracellular domain with C-terminal His tag (human, UniProt P12318 34-217)
T2 construct: extracellular domain; also called FcγRIIa H; not shown: His tag attached to the C terminus
T2 sequence (looked up): T1 sequence (looked up) with R134H

T3: FcgRIIb (FcγRIIb) extracellular domain with C-terminal His tag (human, UniProt P31994 43-217)
T3 construct: extracellular domain; not shown: His tag attached to the C terminus
T3 sequence (looked up): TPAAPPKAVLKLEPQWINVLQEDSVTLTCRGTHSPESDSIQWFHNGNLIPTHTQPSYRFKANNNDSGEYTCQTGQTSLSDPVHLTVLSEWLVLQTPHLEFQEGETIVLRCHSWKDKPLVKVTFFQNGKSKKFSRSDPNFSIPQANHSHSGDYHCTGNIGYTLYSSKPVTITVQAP

B1: H240-Kn061/H240-Hl071/L73-k0 variant with Y235A in H240-Kn061 (antibody, human IgG1, kappa)
heavy 1: QDQLVQSGAEVKKPGASVKVSCKASGFNIKDTYIQWVRQAPGQGLEWMGRIDPLRKQTKYREKFEGRVTITADTSTNTAYMELSSLRSEDTAVYYCVRSGREFDYWGQGTLVTVSSASTKGPSVFPLAPSSKSTSGGTAALGCLVKDYFPEPVTVSWNSGALTSGVHTFPAVLQSSGLYSLSSVVTVPSSSLGTQTYICNVNHKPSNTKVDKKVEPKSCDKTHTCPPCPAPEYAWGPSVFLFPPKPKDTLMISRTPEVTCVVVDVSDEDPEVKFNWYVDGVEVHNAKTKPREEQYNATYRVVSVLTVLHQDWLNGKEYKCKVSNKALPAPIEKTISKAKGQPREPQVCTLPPSRDELTKNQVSLWCLVKGFYPSDIAVEWESNGQPENNYKTTPPVLDSDGSFFLYSKLTVDKSRWQQGNVFSCSVMHEALHNHYTQKSLSLSP
heavy 2: QDQLVQSGAEVKKPGASVKVSCKASGFNIKDTYIQWVRQAPGQGLEWMGRIDPLRKQTKYREKFEGRVTITADTSTNTAYMELSSLRSEDTAVYYCVRSGREFDYWGQGTLVTVSSASTKGPSVFPLAPSSKSTSGGTAALGCLVKDYFPEPVTVSWNSGALTSGVHTFPAVLQSSGLYSLSSVVTVPSSSLGTQTYICNVNHKPSNTKVDKKVEPKSCDKTHTCPPCPAPELLGGPSVFLFPPKPKDTLMISRTPEVTCVVVDVSHEDPEVKFNWYVDGVEVHNAKTKPREEQYNSTYRVVSVLTVLHQDWLNGKEYKCKVSNDALPMPIEETISKAKGQPREPQVYTLPPSRCELTKNQVSLSCAVKGFYPSDIAVEWESNGQPENNYKTTPPVLDSDGSFFLVSKLTVDKSRWQQGNVFSCSVMHEALHNHYTQKSLSLSP
light: DIQMTQSPSSLSASVGDRVTITCRASQDIHKYIAWYQQKPGQAPRLLIQYTSTLQPGVPSRFSGSGSGTDYTFTISSLQPEDIATYYCLQYEQLRTFGGGTKVEIKRTVAAPSVFIFPPSDEQLKSGTASVVCLLNNFYPREAKVQWKVDNALQSGNSQESVTEQDSKDSTYSLSSTLTLSKADYEKHKVYACEVTHQGLSSPVTKSFNRGEC
notes: anti-epiregulin heterodimerized IgG1; also called H240-Kn061 Y235A
B2: H240-Kn061/H240-Hl071/L73-k0 variant with Y234E in H240-Kn061 (antibody, human IgG1, kappa)
heavy 1: B1 heavy 1 with Y233E, A234Y
heavy 2: B1 heavy 2
light: B1 light
notes: anti-epiregulin heterodimerized IgG1; also called H240-Kn061 Y234E
B3: H240-Kn061/H240-Hl071/L73-k0 variant with Y235I in H240-Kn061 (antibody, human IgG1, kappa)
heavy 1: B1 heavy 1 with A234I
heavy 2: B1 heavy 2
light: B1 light
notes: anti-epiregulin heterodimerized IgG1; also called H240-Kn061 Y235I
B4: H240-Kn061/H240-Hl071/L73-k0 variant with Y234L in H240-Kn061 (antibody, human IgG1, kappa)
heavy 1: B1 heavy 1 with Y233L, A234Y
heavy 2: B1 heavy 2
light: B1 light
notes: anti-epiregulin heterodimerized IgG1; also called H240-Kn061 Y234L
B5: H240-Kn061/H240-Hl071/L73-k0 variant with V240H in H240-Hl071 (antibody, human IgG1, kappa)
heavy 1: B1 heavy 1 with A234Y
heavy 2: B1 heavy 2 with V239H
light: B1 light
notes: anti-epiregulin heterodimerized IgG1; also called H240-Hl071 V240H
B6: H240-Kn061/H240-Hl071/L73-k0 variant with Y234I in H240-Kn061 (antibody, human IgG1, kappa)
heavy 1: B1 heavy 1 with Y233I, A234Y
heavy 2: B1 heavy 2
light: B1 light
notes: anti-epiregulin heterodimerized IgG1; also called H240-Kn061 Y234I

Tests used:
Test in all cases: SPR (Biacore); KD of H240-Kn061/H240-Hl071/L73-k0 divided by KD of the variant
[1] = biological target: T1, FcgRIIa R (FcγRIIa type R) …
Method: (§1) The antibodies were assessed for the binding to each FcgR. […] The resultant value was defined as relative KD, and used as an assessment indicator.
(§2) Analysis of interaction between objective antibody and the FcγR was carried out using Biacore T100 (GE Healthcare), Biacore T200, Biacore A100, and Biacore 4000. HBS-EP+ (GE Healthcare) was used as the running buffer, and the measurement temperature was set to 25° C. Chips produced by immobilizing the antigen peptide by the amine coupling method to a Series S sensor Chip CM5 (GE Healthcare), chips produced by allowing preliminarily biotinylated antigen peptides to interact with and immobilize onto a Series S Sensor Chip SA (certified) (GE Healthcare), chips produced by immobilizing Protein L (ACTIGEN, BioVision) to Series S Sencor Chip CM5 (GE Healthcare), or chips produced by immobilizing Protein A/G (Thermo Scientific) to Series S Sencor Chip CM5 (GE Healthcare) were used. Antibodies of interest were captured onto these chips, and allowed to interact to each FcγR diluted with running buffer.

[2] = biological target: T2, FcgRIIa H (FcγRIIa type H) …
Method: as §1, §2

[3] = biological target: T3, FcgRIIb (FcγRIIb) extracellular domain …
Method: as §1, §2

[4] = biological target: T4, FcgRIIIa F (FcγRIIIa type F) extracellular domain with C-terminal His tag (human, UniProt P08637 17-208)
T4 construct: extracellular domain; also called FcγRIIIa F; 3aF; not shown: His tag attached to the C terminus
Method: as §1, §2

[5] = biological target: T5, FcgRIIIa V (FcγRIIIa type V) extracellular domain with C-terminal His tag (human, UniProt P08637 17-208)
T5 construct: extracellular domain; also called FcγRIIIa V; not shown: His tag attached to the C terminus
Method: as §1, §2

[6] = biological target: T3, FcgRIIb (FcγRIIb) extracellular domain …; remark: listed apart in the source
[7] = biological target: T4, FcgRIIIa F (FcγRIIIa type F) …; remark: listed apart in the source
[8] = biological target: T5, FcgRIIIa V (FcγRIIIa type V) …; remark: listed apart in the source

T5 sequence (P08637 17-208 F176V limits assumed): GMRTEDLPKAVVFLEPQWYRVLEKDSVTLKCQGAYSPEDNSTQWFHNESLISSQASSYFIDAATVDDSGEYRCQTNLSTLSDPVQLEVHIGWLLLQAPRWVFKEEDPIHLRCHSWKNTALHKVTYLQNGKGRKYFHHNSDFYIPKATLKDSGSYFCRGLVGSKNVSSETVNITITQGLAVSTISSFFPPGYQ
T4 sequence (P08637 17-208): as the sequence (P08637 17-208 F176V limits assumed) above, with V160F counted along it

Binder	relative KD [1] [ratio]	relative KD [2] [ratio]	relative KD [3] [ratio]	relative KD [4] [ratio]	relative KD [5] [ratio]	relative KD [6] [ratio]	relative KD [7] [ratio]	relative KD [8] [ratio]
B1	0.5	0.5	0.2	1.2	1.3	0.2	1.2	1.3
B2	1.4	0.7	0.5	1.9	1.6	0.5	1.9	1.6
B3	0.7	0.4	0.2	1.3	1.6	0.2	1.3	1.6
B4	2.2	1.5	3.5	1.1	1.2			
B5	0.7	0.8	0.3	1.3	1			
B6	4.1	2.6	7.7	1.2	1.3			
